Measured values from IntAct's records for PubMed 24229708.

B1: Runt-related transcription factor 3 (Homo sapiens), Q13761 (parent)
chain: MRIPVDPSTSRRFTPPSPAFPCGGGGGKMGENSGALSAQAAVGPGGRARPEVRSMVDVLADHAGELVRTDSPNFLCSVLPSHWRCNKTLPVAFKVVALGDVPDGTVVTVMAGNDENYSAELRNASAVMKNQVARFNDLRFVGRSGRGKSFTLTITVFTNPTQVATYHRAIKVTVDGPREPRRHRQKLEDQTKPFPDRFGDLERLRMRVTPSTPSPRGSLSTTSHFSSQPQTPIQGTSELNPFSDPRQFDRSFPTLPTLTESRFPDPRMHYPGAMSAAFPYSATPSGTSISSLSVAGMPATSRFHHTYLPPPYPGAPQNQSGPFQANPSPYHLYYGTSSGSYQFSMVAGSSSGGDRSPTRMLASCTSSAASVAAGNLMNPSLGGQSDGVEADGSHSNSPTALSTPGRMDEAVWRPY

Variants of: B1
Conditions: with brd2_human BRD2, P25440

| Variant | effect of a mutation on the interaction |
| --- | --- |
| K171R | decreasing interaction |
| K94R;K171R | disrupting interaction |

Other lines, results leading:

| effect of a mutation on the interaction | Variant |
| --- | --- |
| disrupting interaction | K87R;K94R;K129R;K148R;K171R;K186R |
| disrupting interaction | K94R |
